system: Escherichia coli TOP10; test: shrunken log2 fold change of peptide-encoding DNA abundance (4.5 h post-induction vs induction); higher = less antimicrobial activity (less host growth inhibition); conditions: time post-induction: 4.5 h; library: site-saturation at positions 5, 18, 19, 20
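Further: peptides expressed intracellularly from a pBAD plasmid library in pooled LB shake-flask culture, induced with 0.3% L-arabinose, DNA abundance read by NGS, three biological replicates, DESeq2 with apeglm shrinkage.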

Row | Sequence | shrunken log2 fold change
1 | RRIRNRPPRLPRPRPRPAVYPRP | -0.0398
2 | RRIRNRPPRLPRPRPRPAWAPRP | -0.0271
3 | RRIRNRPPRLPRPRPRPAYFPRP | -0.175
4 | RRIRNRPPRLPRPRPRPAYIPRP | -0.786
5 | RRIRNRPPRLPRPRPRPCADPRP | 1.47
6 | RRIRNRPPRLPRPRPRPCAFPRP | -0.071
7 | RRIRNRPPRLPRPRPRPCCPPRP | -0.0502
8 | RRIRNRPPRLPRPRPRPCDRPRP | 0.0883
9 | RRIRNRPPRLPRPRPRPCEIPRP | 0.0361
10 | RRIRNRPPRLPRPRPRPCERPRP | -0.00992
11 | RRIRNRPPRLPRPRPRPCGGPRP | -0.0209
12 | RRIRNRPPRLPRPRPRPCGSPRP | -0.0353
13 | RRIRNRPPRLPRPRPRPCKWPRP | -0.339
14 | RRIRNRPPRLPRPRPRPCLMPRP | -0.299
15 | RRIRNRPPRLPRPRPRPCNNPRP | -0.0122
16 | RRIRNRPPRLPRPRPRPCPMPRP | 0.151
17 | RRIRNRPPRLPRPRPRPCPQPRP | 0.0087
18 | RRIRNRPPRLPRPRPRPCPTPRP | -0.0624
19 | RRIRNRPPRLPRPRPRPCRPPRP | -0.197
20 | RRIRNRPPRLPRPRPRPCSVPRP | 0.0192
21 | RRIRNRPPRLPRPRPRPCTAPRP | 0.022
22 | RRIRNRPPRLPRPRPRPCTSPRP | -0.0712
23 | RRIRNRPPRLPRPRPRPCVDPRP | 0.037
24 | RRIRNRPPRLPRPRPRPCVHPRP | -0.0018
25 | RRIRNRPPRLPRPRPRPCWPPRP | 0.274

Row | Sequence | shrunken log2 fold change
26 | RRIRNRPPRLPRPRPRPCYPPRP | -0.318
27 | RRIRNRPPRLPRPRPRPCYVPRP | -0.0102
28 | RRIRNRPPRLPRPRPRPDCLPRP | 0.0127
29 | RRIRNRPPRLPRPRPRPDDIPRP | 0.0399
30 | RRIRNRPPRLPRPRPRPDDTPRP | 0.0119
31 | RRIRNRPPRLPRPRPRPDDVPRP | -0.0233
32 | RRIRNRPPRLPRPRPRPDEPPRP | -0.061
33 | RRIRNRPPRLPRPRPRPDFMPRP | -0.138
34 | RRIRNRPPRLPRPRPRPDFSPRP | -0.0911
35 | RRIRNRPPRLPRPRPRPDIKPRP | -0.171
36 | RRIRNRPPRLPRPRPRPDKMPRP | 0.0206
37 | RRIRNRPPRLPRPRPRPDKYPRP | -0.665
38 | RRIRNRPPRLPRPRPRPDLFPRP | -0.00884
39 | RRIRNRPPRLPRPRPRPDLIPRP | -0.172
40 | RRIRNRPPRLPRPRPRPDLSPRP | -0.0537
41 | RRIRNRPPRLPRPRPRPDMYPRP | -0.00473
42 | RRIRNRPPRLPRPRPRPDPIPRP | -0.143
43 | RRIRNRPPRLPRPRPRPDPMPRP | -0.177
44 | RRIRNRPPRLPRPRPRPDPTPRP | 0.0817
45 | RRIRNRPPRLPRPRPRPDPWPRP | 0.106
46 | RRIRNRPPRLPRPRPRPDQDPRP | -0.00104
47 | RRIRNRPPRLPRPRPRPDQGPRP | -0.257
48 | RRIRNRPPRLPRPRPRPDQHPRP | -0.34
49 | RRIRNRPPRLPRPRPRPDQLPRP | 0.0418
50 | RRIRNRPPRLPRPRPRPDQMPRP | 0.0898

Row | Sequence | shrunken log2 fold change
51 | RRIRNRPPRLPRPRPRPDRRPRP | -0.115
52 | RRIRNRPPRLPRPRPRPDSCPRP | -0.00192
53 | RRIRNRPPRLPRPRPRPDSKPRP | -0.335
54 | RRIRNRPPRLPRPRPRPDSQPRP | -0.0699
55 | RRIRNRPPRLPRPRPRPDSSPRP | -0.00145
56 | RRIRNRPPRLPRPRPRPDTKPRP | -0.0152
57 | RRIRNRPPRLPRPRPRPDTLPRP | -0.0286
58 | RRIRNRPPRLPRPRPRPDTNPRP | -0.141
59 | RRIRNRPPRLPRPRPRPDTQPRP | -0.149
60 | RRIRNRPPRLPRPRPRPDVFPRP | -0.199
61 | RRIRNRPPRLPRPRPRPDYYPRP | -1.4
62 | RRIRNRPPRLPRPRPRPEADPRP | 0.0747
63 | RRIRNRPPRLPRPRPRPEAPPRP | 3.17
64 | RRIRNRPPRLPRPRPRPEATPRP | 0.556
65 | RRIRNRPPRLPRPRPRPEDPPRP | 0.00956
66 | RRIRNRPPRLPRPRPRPEFKPRP | -0.0932
67 | RRIRNRPPRLPRPRPRPEFNPRP | -0.0322
68 | RRIRNRPPRLPRPRPRPEFWPRP | 0.0698
69 | RRIRNRPPRLPRPRPRPEHRPRP | -0.226
70 | RRIRNRPPRLPRPRPRPEIPPRP | -0.113
71 | RRIRNRPPRLPRPRPRPELRPRP | 0.0572
72 | RRIRNRPPRLPRPRPRPEMAPRP | 0.321
73 | RRIRNRPPRLPRPRPRPEMNPRP | 0.0511
74 | RRIRNRPPRLPRPRPRPEMTPRP | -0.059
75 | RRIRNRPPRLPRPRPRPENTPRP | -0.803

Row | Sequence | shrunken log2 fold change
76 | RRIRNRPPRLPRPRPRPEQEPRP | 0.0175
77 | RRIRNRPPRLPRPRPRPERHPRP | 0.204
78 | RRIRNRPPRLPRPRPRPESAPRP | -0.0184
79 | RRIRNRPPRLPRPRPRPESMPRP | 0.669
80 | RRIRNRPPRLPRPRPRPETGPRP | 2.57
81 | RRIRNRPPRLPRPRPRPETKPRP | 0.384
82 | RRIRNRPPRLPRPRPRPETNPRP | 0.196
83 | RRIRNRPPRLPRPRPRPEVMPRP | 0.0307
84 | RRIRNRPPRLPRPRPRPEYYPRP | -0.0216
85 | RRIRNRPPRLPRPRPRPFAFPRP | -0.74
86 | RRIRNRPPRLPRPRPRPFAVPRP | -0.398
87 | RRIRNRPPRLPRPRPRPFCPPRP | -0.278
88 | RRIRNRPPRLPRPRPRPFDGPRP | -0.0509
89 | RRIRNRPPRLPRPRPRPFDQPRP | -0.0155
90 | RRIRNRPPRLPRPRPRPFEAPRP | 0.0104
91 | RRIRNRPPRLPRPRPRPFEEPRP | 0.0129
92 | RRIRNRPPRLPRPRPRPFEPPRP | -0.181
93 | RRIRNRPPRLPRPRPRPFFAPRP | 0.201
94 | RRIRNRPPRLPRPRPRPFKNPRP | 0.0633
95 | RRIRNRPPRLPRPRPRPFKTPRP | -0.0614
96 | RRIRNRPPRLPRPRPRPFLEPRP | 0.0329
97 | RRIRNRPPRLPRPRPRPFMQPRP | -0.194
98 | RRIRNRPPRLPRPRPRPFNAPRP | -0.257
99 | RRIRNRPPRLPRPRPRPFQSPRP | -0.0983
100 | RRIRNRPPRLPRPRPRPFSSPRP | -0.0316

Row | Sequence | shrunken log2 fold change
101 | RRIRNRPPRLPRPRPRPFSTPRP | -0.226
102 | RRIRNRPPRLPRPRPRPFTFPRP | -0.628
103 | RRIRNRPPRLPRPRPRPFTLPRP | -0.884
104 | RRIRNRPPRLPRPRPRPFVRPRP | -0.0373
105 | RRIRNRPPRLPRPRPRPFYGPRP | -0.107
106 | RRIRNRPPRLPRPRPRPFYQPRP | -0.8
107 | RRIRNRPPRLPRPRPRPFYSPRP | 0.0464
108 | RRIRNRPPRLPRPRPRPGAHPRP | 0.0408
109 | RRIRNRPPRLPRPRPRPGAMPRP | 0.101
110 | RRIRNRPPRLPRPRPRPGCAPRP | 0.426
111 | RRIRNRPPRLPRPRPRPGCCPRP | -0.0641
112 | RRIRNRPPRLPRPRPRPGCLPRP | -0.000466
113 | RRIRNRPPRLPRPRPRPGCPPRP | -0.055
114 | RRIRNRPPRLPRPRPRPGDAPRP | 0.102
115 | RRIRNRPPRLPRPRPRPGFGPRP | 0.25
116 | RRIRNRPPRLPRPRPRPGFTPRP | 0.0826
117 | RRIRNRPPRLPRPRPRPGGEPRP | -0.0266
118 | RRIRNRPPRLPRPRPRPGGIPRP | -0.109
119 | RRIRNRPPRLPRPRPRPGGTPRP | 0.154
120 | RRIRNRPPRLPRPRPRPGHHPRP | -0.00875
121 | RRIRNRPPRLPRPRPRPGHRPRP | 0.00909
122 | RRIRNRPPRLPRPRPRPGKAPRP | -0.181
123 | RRIRNRPPRLPRPRPRPGMCPRP | -0.0316
124 | RRIRNRPPRLPRPRPRPGMSPRP | -0.238
125 | RRIRNRPPRLPRPRPRPGNGPRP | -0.462

Row | Sequence | shrunken log2 fold change
126 | RRIRNRPPRLPRPRPRPGNYPRP | 0.224
127 | RRIRNRPPRLPRPRPRPGPGPRP | 0.274
128 | RRIRNRPPRLPRPRPRPGPSPRP | 0.516
129 | RRIRNRPPRLPRPRPRPGQAPRP | 0.0345
130 | RRIRNRPPRLPRPRPRPGRRPRP | 0.79
131 | RRIRNRPPRLPRPRPRPGSEPRP | -0.24
132 | RRIRNRPPRLPRPRPRPGSIPRP | -0.00285
133 | RRIRNRPPRLPRPRPRPGSPPRP | -0.11
134 | RRIRNRPPRLPRPRPRPGSTPRP | -0.145
135 | RRIRNRPPRLPRPRPRPGTPPRP | 0.608
136 | RRIRNRPPRLPRPRPRPGTTPRP | 0.0321
137 | RRIRNRPPRLPRPRPRPGVIPRP | 0.208
138 | RRIRNRPPRLPRPRPRPGVYPRP | -0.241
139 | RRIRNRPPRLPRPRPRPGWNPRP | 0.324
140 | RRIRNRPPRLPRPRPRPGYQPRP | -0.0454
141 | RRIRNRPPRLPRPRPRPHATPRP | 0.00661
142 | RRIRNRPPRLPRPRPRPHCCPRP | -0.215
143 | RRIRNRPPRLPRPRPRPHCMPRP | -0.251
144 | RRIRNRPPRLPRPRPRPHDEPRP | -0.103
145 | RRIRNRPPRLPRPRPRPHDQPRP | 0.0402
146 | RRIRNRPPRLPRPRPRPHFAPRP | 0.0588
147 | RRIRNRPPRLPRPRPRPHFTPRP | -0.0512
148 | RRIRNRPPRLPRPRPRPHMEPRP | -0.145
149 | RRIRNRPPRLPRPRPRPHMLPRP | -0.954
150 | RRIRNRPPRLPRPRPRPHMRPRP | -0.00174
